# Experimental data published in patent publication US20230302100.
# Positions count from the first letter of the chain named. Several values for one entry are separate records, joined by “and”; a condition that tells them apart may be missing. Identical values can stand only once.
# B1: pCART204 (protein)
# chain: MDDYQRNATEAYAKEVPHQITSVWTKGVTPPEQFRYNNEDVIHAPYLAHQGWYDITKAFDGKDNLLCGAATAGNMLHWWFDQNKTEIEAYLSKHPEKQKIIFNNQELFDLKAAIDTKDSQTNSQLFNYFRDKAFPNLSARQLGVMPDLVLDMFINGYYLNVFKTQSTDVNRPYQDKDKRGGIFDAVFTRGDQTTLLTARHDLKNKGLNDISTIIKQELTEGRALALSHTYANVSISHVINLWGADFNAEGNLEAIYVTDSDANASIGMKKYFVGINAHGHVAISAKKIEGENIGAQVLGLFTLSSGKDIWQKLSGGGHHHHHH
# B2: pCART144 (IdeZ with N terminal methionine and histidine tag) (protein)
# chain: MDDYQRNATEAYAKEVPHQITSVWTKGVTPLTPEQFRYNNEDVIHAPYLAHQGWYDITKAFDGKDNLLCGAATAGNMLHWWFDQNKTEIEAYLSKHPEKQKIIFNNQELFDLKAAIDTKDSQTNSQLFNYFRDKAFPNLSARQLGVMPDLVLDMFINGYYLNVFKTQSTDVNRPYQDKDKRGGIFDAVFTRGDQTTLLTARHDLKNKGLNDISTIIKQELTEGRALALSHTYANVSISHVINLWGADFNAEGNLEAIYVTDSDANASIGMKKYFVGINAHGHVAISAKKIEGENIGAQVLGLFTLSSGKDIWQKLSGGGHHHHHH
# B3: pCART202 (protein)
# chain: MDDYQRNATEAYAKEVPHQITSVWTKGVTPLTPEQFTQGEDVIHAPYLAHQGWYDITKAFDGKDNLLCGAATAGNMLHWWFDQNKTEIEAYLSKHPEKQKIIFNNQELFDLKAAIDTKDSQTNSQLFNYFRDKAFPNLSARQLGVMPDLVLDMFINGYYLNVFKTQSTDVNRPYQDKDKRGGIFDAVFTRGDQTTLLTARHDLKNKGLNDISTIIKQELTEGRALALSHTYANVSISHVINLWGADFNAEGNLEAIYVTDSDANASIGMKKYFVGINAHGHVAISAKKIEGENIGAQVLGLFTLSSGKDIWQKLSGGGHHHHHH
# B4: IdeS BX1001865 (protein)
# chain: DSFSANQEIRYSEVTPYHVTSVWTKGVTPPANFTQGEDVFHAPYVANQGWYDITKTFNGKDDLLCGAATAGNMLHWWFDQNKDQIKRYLEEHPEKQKINFNGEQMFDVKEAIDTKNHQLDSKLFEYFKEKAFPYLSTKHLGVFPDHVIDMFINGYRLSLTNHGPTPVKEGSKDPRGGIFDAVFTRGDQSKLLTSRHDFKEKNLKEISDLIKKELTEGKALGLSHTYANVRINHVINLWGADFDSNGNLKAIYVTDSDSNASIGMKKYFVGVNSAGKVAISAKEIKEDNIGAQVLGLFTLSTGQDSWNQTN
# B5: pCART229 (protein)
# chain: MDDYQRNATEAYAKEVPHQITSVWTKGVTPPEQFTQGEDVIHAPYLAHQGWYDITKAFDGKDNLLCGAATAGNMLHWWFDQNKTEIEAYLSKHPEKQKIIFRNQELFDLKAAIDTKDSQTNSQLFNYFRDKAFPNLSARQLGVMPDLVLDMFINGYYLNVFKTQSTDVNRPYQDKDKRGGIFDAVFTRGNQTTLLTARHDLKNKGLNDISTIIKQELTEGRALALSHTYANVSISHVINLWGADFNAEGNLEAIYVTDSDANASIGMKKYFVGINAHGHVAISAKKIEGENIGAQVLGLFTLSSGKDIWQKLSGGGHHHHHH
# B6: pCART206 (protein)
# chain: B5 chain with F101I, R102N, N190D
# B7: pCART203 (protein)
# chain: B5 chain with R102N, N190D
# B8: pCART208 (protein)
# chain: B5 chain with F101I, N190D
# B9: pCART210 (protein)
# chain: B5 chain with H48N, A111E, D114R, N126E, N135Y, N169K, Q215E, E219K, A276K, S313N
# B10: pCART124 (IdeS with N terminal methionine and histidine tag) (protein)
# chain: MDSFSANQEIRYSEVTPYHVTSVWTKGVTPPANFTQGEDVFHAPYVANQGWYDITKTFNGKDDLLCGAATAGNMLHWWFDQNKDQIKRYLEEHPEKQKINFNGEQMFDVKEAIDTKNHQLDSKLFEYFKEKAFPYLSTKHLGVFPDHVIDMFINGYRLSLTNHGPTPVKEGSKDPRGGIFDAVFTRGDQSKLLTSRHDFKEKNLKEISDLIKKELTEGKALGLSHTYANVRINHVINLWGADFDSNGNLKAIYVTDSDSNASIGMKKYFVGVNSAGKVAISAKEIKEDNIGAQVLGLFTLSTGQDSWNQTNGGGHHHHHH
# Target: IVIg (Octagam)
protein,measurement,value
B1,"IVIg cleavage, SDS-PAGE titration: enzyme concentration giving an intense scIgG band","Concentrations of 0.94 ng/ml (lane 6) for pCART202, pCART203 and pCART204 result in an intense band of scIgG (arrow 2), with most of the IgG single cleaved"
B2,"IVIg cleavage of the 2nd heavy chain, SDS-PAGE titration",pCART144 (IdeZ) is worse in cleavage of the 2nd heavy chain compared to IdeS (BX1001865 and pCART124)
same,"IVIg cleavage, SDS-PAGE titration",shows more effective cleavage at the 1st IgG heavy chain (lane 6) compared to IdeS (BX1001865 and pCART124)
B3,"IVIg cleavage, SDS-PAGE titration: enzyme concentration giving an intense scIgG band","Concentrations of 0.94 ng/ml (lane 6) for pCART202, pCART203 and pCART204 result in an intense band of scIgG (arrow 2), with most of the IgG single cleaved"
B4,"Conc. of enzyme for 1st IgG heavy chain cleavage (IgG to scIgG), SDS-PAGE",1900 ng/mL
same,"Conc. of enzyme for 2nd IgG heavy chain cleavage (scIgG to F(ab')2), SDS-PAGE",6000 ng/mL and 7500 ng/mL
same,"IVIg cleavage, SDS-PAGE titration: enzyme concentration at which cleavage starts","IdeS, which starts the cleavage at 0.9 ng/ml (lane 6) and has a dominating scIgG band at 1.9 ng/ml (lane 5)"
same,"IVIg cleavage, SDS-PAGE titration: enzyme concentration giving a dominating scIgG band","IdeS, which starts the cleavage at 0.9 ng/ml (lane 6) and has a dominating scIgG band at 1.9 ng/ml (lane 5)"
same,"IVIg cleavage, SDS-PAGE titration: enzyme concentration giving mainly scIgG",IdeS (BX1001865) has generated mainly scIgG (arrow 2) at a concentration of 1.9 ng/ml (lane 5)
same,"IVIg cleavage, SDS-PAGE titration: share of scIgG at 0.94 ng/ml enzyme",the same concentration of IdeS results in less than 50% scIgG (lane 6)
B5,"Conc. of enzyme for 1st IgG heavy chain cleavage (IgG to scIgG), SDS-PAGE",1900 ng/mL
same,"Conc. of enzyme for 2nd IgG heavy chain cleavage (scIgG to F(ab')2), SDS-PAGE",7500 ng/mL
B6,"IVIg cleavage in the presence of anti-IdeS neutralizing antibodies, SDS-PAGE titration",A similar result was obtained for pCART206 (data not shown)
B7,"IVIg cleavage, SDS-PAGE titration","pCART203 shows a capacity comparable to IdeS (BX1001865 and pCART124) at the 2nd cleavage site (lane 2, 3 and 4) and a higher cleavage efficacy than both IdeS and IdeZ (pCART144) at the 1st cleavage site (lane 7)"
same,"IVIg cleavage, SDS-PAGE titration: enzyme concentration at which cleavage is seen",Enzyme pCART203 demonstrates IgG cleavage at 0.5 ng/ml (lane 7)
same,"IVIg cleavage, SDS-PAGE titration: enzyme concentration giving an intense scIgG band","Concentrations of 0.94 ng/ml (lane 6) for pCART202, pCART203 and pCART204 result in an intense band of scIgG (arrow 2), with most of the IgG single cleaved"
same,"IVIg cleavage, SDS-PAGE titration: enzyme concentration giving mainly scIgG",has generated mainly scIgG (arrow 2) at about 0.9 ng/ml (lane 6)
same,"IVIg cleavage, SDS-PAGE titration: fold efficacy over IdeS",This corresponds to a 2 fold increased efficacy compared to IdeS
B8,"IVIg cleavage of the 1st heavy chain, SDS-PAGE titration","pCART207, pCART208 and pCART210 all show increased efficacy compared to IdeS (BX1001865) in the cleavage of the 1st IgG heavy chain (lane 6)"
same,"IVIg cleavage of the 1st heavy chain, SDS-PAGE titration: fold efficacy over IdeS",In the case of pCART208 this is approximately a 4 fold increase in cleavage efficacy of the 1st heavy chain
same,"IVIg cleavage of the 2nd heavy chain, SDS-PAGE titration: enzyme concentration giving a dominating F(ab')2 band","pCART208 shows an improved cleavage efficacy, resulting in a dominating F(ab')2 band (arrow 3) at 1.9 ng/ml (lane 5), whereas IdeS (BX1001865) has only generated scIgG (arrow 2) at the same concentration"
B9,"IVIg cleavage of the 1st heavy chain, SDS-PAGE titration","pCART207, pCART208 and pCART210 all show increased efficacy compared to IdeS (BX1001865) in the cleavage of the 1st IgG heavy chain (lane 6)"
B10,"Conc. of enzyme for 1st IgG heavy chain cleavage (IgG to scIgG), SDS-PAGE",1900 ng/mL
same,"Conc. of enzyme for 2nd IgG heavy chain cleavage (scIgG to F(ab')2), SDS-PAGE",6000 ng/mL and 7500 ng/mL
same,"IVIg cleavage, SDS-PAGE titration: enzyme concentration at which cleavage starts","IdeS, which starts the cleavage at 0.9 ng/ml (lane 6) and has a dominating scIgG band at 1.9 ng/ml (lane 5)"
same,"IVIg cleavage, SDS-PAGE titration: enzyme concentration giving a dominating scIgG band","IdeS, which starts the cleavage at 0.9 ng/ml (lane 6) and has a dominating scIgG band at 1.9 ng/ml (lane 5)"
same,"IVIg cleavage, SDS-PAGE titration: share of scIgG at 0.94 ng/ml enzyme",the same concentration of IdeS results in less than 50% scIgG (lane 6)
